Molecular target: Twin-Strep-tagged human exocyst Subcomplex-1 (Exoc1:Exoc2:Exoc3:Exoc4) (human) (UniProt Q9NV70)
Assay: SPR

UniProt Q9NV70, sequence (Q9NV70 whole entry, chain 1 of 4): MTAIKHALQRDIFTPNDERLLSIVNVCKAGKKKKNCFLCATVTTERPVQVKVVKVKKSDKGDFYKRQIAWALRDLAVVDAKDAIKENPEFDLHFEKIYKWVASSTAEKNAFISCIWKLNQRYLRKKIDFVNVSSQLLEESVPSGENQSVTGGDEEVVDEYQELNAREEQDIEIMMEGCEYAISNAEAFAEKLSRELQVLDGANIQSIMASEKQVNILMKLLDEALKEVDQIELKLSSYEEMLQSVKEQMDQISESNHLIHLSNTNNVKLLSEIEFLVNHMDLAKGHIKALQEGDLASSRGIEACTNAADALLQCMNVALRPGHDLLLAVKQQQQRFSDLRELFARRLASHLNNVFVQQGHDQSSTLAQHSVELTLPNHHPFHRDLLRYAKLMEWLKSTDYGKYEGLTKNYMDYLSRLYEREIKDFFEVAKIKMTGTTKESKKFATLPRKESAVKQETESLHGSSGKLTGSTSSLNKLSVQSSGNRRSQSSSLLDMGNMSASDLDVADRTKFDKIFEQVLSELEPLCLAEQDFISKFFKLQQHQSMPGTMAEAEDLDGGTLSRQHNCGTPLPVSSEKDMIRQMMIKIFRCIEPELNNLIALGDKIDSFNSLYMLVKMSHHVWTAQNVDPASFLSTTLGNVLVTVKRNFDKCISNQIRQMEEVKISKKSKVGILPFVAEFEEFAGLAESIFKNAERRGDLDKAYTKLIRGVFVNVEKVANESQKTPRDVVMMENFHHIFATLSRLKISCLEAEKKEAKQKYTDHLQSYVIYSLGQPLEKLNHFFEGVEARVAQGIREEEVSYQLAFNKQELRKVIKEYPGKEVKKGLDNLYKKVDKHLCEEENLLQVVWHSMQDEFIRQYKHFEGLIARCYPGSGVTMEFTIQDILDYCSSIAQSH
UniProt Q9NV70, sequence (Q96KP1 whole entry, chain 2 of 4, further chain): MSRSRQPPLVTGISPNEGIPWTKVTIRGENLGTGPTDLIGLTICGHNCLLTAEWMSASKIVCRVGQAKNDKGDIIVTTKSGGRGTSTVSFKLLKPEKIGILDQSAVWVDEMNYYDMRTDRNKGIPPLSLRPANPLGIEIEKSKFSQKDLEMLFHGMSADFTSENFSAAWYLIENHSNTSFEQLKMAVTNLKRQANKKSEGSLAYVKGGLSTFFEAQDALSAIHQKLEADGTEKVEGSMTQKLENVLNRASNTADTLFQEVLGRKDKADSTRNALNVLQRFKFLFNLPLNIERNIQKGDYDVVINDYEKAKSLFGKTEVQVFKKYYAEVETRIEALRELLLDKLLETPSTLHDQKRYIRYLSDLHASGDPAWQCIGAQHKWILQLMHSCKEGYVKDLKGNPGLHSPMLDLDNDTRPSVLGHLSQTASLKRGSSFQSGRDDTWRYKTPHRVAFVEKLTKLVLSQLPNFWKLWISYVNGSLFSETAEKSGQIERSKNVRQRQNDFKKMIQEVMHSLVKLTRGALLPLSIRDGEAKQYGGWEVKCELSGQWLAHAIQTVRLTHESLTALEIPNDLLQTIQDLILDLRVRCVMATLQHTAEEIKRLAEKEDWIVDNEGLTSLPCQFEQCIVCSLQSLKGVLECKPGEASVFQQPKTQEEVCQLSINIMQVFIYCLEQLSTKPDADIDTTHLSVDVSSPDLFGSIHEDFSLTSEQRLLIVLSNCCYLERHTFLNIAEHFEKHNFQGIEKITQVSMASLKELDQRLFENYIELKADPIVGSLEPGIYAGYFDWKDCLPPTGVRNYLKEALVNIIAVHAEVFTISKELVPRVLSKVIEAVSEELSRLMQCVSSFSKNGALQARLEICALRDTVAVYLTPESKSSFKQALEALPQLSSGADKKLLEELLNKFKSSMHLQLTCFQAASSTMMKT
UniProt Q9NV70, sequence (O60645 whole entry, chain 3 of 4, further chain): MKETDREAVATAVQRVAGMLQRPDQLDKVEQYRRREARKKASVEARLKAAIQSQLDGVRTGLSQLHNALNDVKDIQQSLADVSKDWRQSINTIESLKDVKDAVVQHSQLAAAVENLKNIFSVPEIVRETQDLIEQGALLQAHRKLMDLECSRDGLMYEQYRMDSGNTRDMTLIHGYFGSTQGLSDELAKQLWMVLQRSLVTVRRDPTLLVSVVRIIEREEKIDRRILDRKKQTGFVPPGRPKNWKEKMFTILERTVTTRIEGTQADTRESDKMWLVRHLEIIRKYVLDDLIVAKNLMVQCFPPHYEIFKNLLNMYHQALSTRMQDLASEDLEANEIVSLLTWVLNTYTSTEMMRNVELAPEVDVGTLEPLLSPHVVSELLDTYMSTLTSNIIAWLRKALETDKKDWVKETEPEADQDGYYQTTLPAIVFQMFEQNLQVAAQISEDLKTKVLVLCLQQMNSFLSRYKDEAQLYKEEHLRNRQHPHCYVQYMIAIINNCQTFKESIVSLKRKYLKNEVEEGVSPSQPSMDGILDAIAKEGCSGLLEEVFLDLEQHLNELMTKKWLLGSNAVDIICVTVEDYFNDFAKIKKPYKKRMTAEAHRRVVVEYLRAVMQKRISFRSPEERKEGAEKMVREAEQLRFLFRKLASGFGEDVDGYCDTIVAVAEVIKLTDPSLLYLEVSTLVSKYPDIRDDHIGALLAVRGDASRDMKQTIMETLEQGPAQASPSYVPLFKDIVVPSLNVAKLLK
UniProt Q9NV70, sequence (Q96A65 whole entry, chain 4 of 4, further chain): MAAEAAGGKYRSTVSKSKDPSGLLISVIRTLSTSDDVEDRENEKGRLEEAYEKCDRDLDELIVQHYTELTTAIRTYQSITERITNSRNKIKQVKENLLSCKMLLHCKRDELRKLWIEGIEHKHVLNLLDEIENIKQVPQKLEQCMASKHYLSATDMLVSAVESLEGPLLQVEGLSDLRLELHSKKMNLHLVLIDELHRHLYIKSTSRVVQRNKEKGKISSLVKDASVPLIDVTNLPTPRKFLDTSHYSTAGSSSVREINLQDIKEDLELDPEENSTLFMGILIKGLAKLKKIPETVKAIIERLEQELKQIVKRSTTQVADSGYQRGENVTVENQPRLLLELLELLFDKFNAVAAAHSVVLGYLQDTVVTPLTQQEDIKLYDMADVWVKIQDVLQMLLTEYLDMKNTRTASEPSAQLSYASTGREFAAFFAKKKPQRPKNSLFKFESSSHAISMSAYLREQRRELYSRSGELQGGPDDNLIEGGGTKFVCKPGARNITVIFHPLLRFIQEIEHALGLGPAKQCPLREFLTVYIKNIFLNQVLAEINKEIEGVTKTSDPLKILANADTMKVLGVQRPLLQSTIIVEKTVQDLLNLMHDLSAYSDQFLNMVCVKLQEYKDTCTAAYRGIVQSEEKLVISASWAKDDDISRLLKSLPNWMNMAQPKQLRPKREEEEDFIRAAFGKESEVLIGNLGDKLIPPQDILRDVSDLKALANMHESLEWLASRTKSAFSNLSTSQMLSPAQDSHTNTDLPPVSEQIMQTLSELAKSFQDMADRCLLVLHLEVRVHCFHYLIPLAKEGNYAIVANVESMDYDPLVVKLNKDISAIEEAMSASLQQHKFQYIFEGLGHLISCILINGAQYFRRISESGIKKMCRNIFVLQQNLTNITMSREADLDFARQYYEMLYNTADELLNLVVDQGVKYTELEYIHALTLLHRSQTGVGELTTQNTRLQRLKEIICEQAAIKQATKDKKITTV

- Kd: 78 nM
Substance: human exocyst Subcomplex-2 (Exoc5:Exoc6:Exoc7:Exoc8) (from UniProt O00471 1-708; Q8TAG9 1-804; Q9UPT5 1-735; Q8IYI6 1-725)

Source: doi:10.1101/2024.10.07.617058
